Results from patent US20050048627A1.

Target: MMP-2 (UniProt P08253)
Test: cell-based or functional assay

Sequence of UniProt P08253 (P08253 110-660 limits assumed): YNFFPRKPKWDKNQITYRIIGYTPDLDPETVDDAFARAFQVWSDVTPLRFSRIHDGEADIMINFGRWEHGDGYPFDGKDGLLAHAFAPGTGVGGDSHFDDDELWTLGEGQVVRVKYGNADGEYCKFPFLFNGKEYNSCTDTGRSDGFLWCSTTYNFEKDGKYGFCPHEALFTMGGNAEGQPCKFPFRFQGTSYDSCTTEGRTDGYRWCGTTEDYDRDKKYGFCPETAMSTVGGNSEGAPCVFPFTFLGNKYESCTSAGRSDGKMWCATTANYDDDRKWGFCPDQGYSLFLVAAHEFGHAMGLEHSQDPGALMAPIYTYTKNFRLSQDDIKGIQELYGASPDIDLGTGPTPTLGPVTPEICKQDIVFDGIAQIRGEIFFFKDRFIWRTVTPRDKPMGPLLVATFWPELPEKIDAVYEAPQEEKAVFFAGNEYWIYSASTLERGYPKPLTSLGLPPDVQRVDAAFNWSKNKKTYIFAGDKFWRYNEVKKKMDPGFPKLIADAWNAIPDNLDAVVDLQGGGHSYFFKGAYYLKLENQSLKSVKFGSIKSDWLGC

inhibition of MMP-2 activity (spectrofluorometric assay, 10 nM MMP-2, 10 µM MCA-Pro-Leu-Gly-Leu-Dap(Dnp)-Ala-Arg-NH2 substrate) at 7.5 µg/ml HSA-TIMP2: 37% | inhibition of MMP-2 activity (spectrofluorometric assay, 10 nM MMP-2, 10 µM MCA-Pro-Leu-Gly-Leu-Dap(Dnp)-Ala-Arg-NH2 substrate) at 15 µg/ml HSA-TIMP2: 55%
Substance: human serum albumin-TIMP2 fusion protein
